According to US5985583, “Cloning and expression of gonadotropin-releasing hormone receptor” (Mount Sinai School of Medicine of The City University of …, dated 1999):
One block for each molecule: values may come before it. Non-standard residues stand in square brackets, D forms with d. No end group written: not given here. d(pGlu) = O=C1CC[C@H](C(=O)O)N1; NMeL = CN[C@@H](CC(C)C)C(=O)O

Assays:
[1] = biological target: human gonadotropin-releasing hormone receptor (GnRH-R), clone LC27-4 (human)
[2] = biological target: human gonadotropin-releasing hormone receptor (GnRH-R), clone LC27-4 (human); assay: Kd derived by the filing from the IC50 of inhibition of GnRH-stimulated inositol phosphate production in COS-1 cells expressing the human GnRH-R
[3] = biological target: T1, human gonadotropin-releasing hormone receptor (GnRH-R), clone LC27-4 (human); assay: displacement of 125I-GnRH-A, membranes of COS-1 cells transfected with the human GnRH-R
T1 chain: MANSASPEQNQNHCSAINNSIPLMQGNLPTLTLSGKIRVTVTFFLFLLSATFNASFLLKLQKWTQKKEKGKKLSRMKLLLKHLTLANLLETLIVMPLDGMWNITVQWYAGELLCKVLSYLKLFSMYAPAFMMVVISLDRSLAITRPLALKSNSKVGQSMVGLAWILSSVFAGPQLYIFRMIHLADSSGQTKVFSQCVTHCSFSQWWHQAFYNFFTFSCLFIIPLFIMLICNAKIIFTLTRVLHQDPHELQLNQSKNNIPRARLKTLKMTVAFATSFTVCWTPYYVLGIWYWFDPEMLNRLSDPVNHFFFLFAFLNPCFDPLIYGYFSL
Experimental: (§1) For studies on inositol phosphate production, 1.8 ×10^5 cells/well (12-well plates) were transfected with 1.5 μg DNA. Cells were assayed 48 hours after transfection.
Cell membranes were prepared from transfected cells with a single centrifugation step as described for rat pituitaries (Millar et al., 1989, J. Biol. Chem. 264:21007–21013).

[4] = biological target: T1, human gonadotropin-releasing hormone …; assay: Kd derived by the filing from the IC50 of inhibition of GnRH-stimulated inositol phosphate production in COS-1 cells expressing the human GnRH-R
Experimental: as §1

[5] = biological target: T2, mouse gonadotropin-releasing hormone receptor (GnRH-R), clone WZ25 (mouse); assay: displacement of 125I-GnRH-A by GnRH-A, αT3-1 cell membranes (endogenous mouse receptor)
T2 chain: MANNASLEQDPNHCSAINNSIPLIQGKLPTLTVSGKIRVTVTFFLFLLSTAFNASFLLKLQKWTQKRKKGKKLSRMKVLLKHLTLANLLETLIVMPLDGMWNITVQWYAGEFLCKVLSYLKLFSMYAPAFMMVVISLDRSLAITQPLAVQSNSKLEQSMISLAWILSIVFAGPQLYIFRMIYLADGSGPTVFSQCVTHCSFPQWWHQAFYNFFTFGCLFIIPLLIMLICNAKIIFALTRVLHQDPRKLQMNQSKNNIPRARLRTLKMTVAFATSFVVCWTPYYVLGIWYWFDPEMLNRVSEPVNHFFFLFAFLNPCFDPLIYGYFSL

[6] = biological target: T2, mouse gonadotropin-releasing hormone …; assay: displacement of 125I-GnRH-A by GnRH-A, membranes of WZ25 RNA-injected oocytes
Experimental: (§2) For membrane preparation, 500 oocytes were each injected with 2.5 ng synthetic WZ25 RNA. After 48 hours, oocyte membranes were prepared as described (Kobilka et al., 1987, J. Biol. Chem. 262: 15796–15802) and resuspended in binding buffer containing 10 mM HEPES, 1 mM EDTA, and 0.1% bovine serum albumin to give a final concentration of 20 oocytes/ml.
(§3) To further characterize the receptor encoded by this cDNA clone, radioligand binding assays were performed on membranes purified from oocytes injected with the WZ25 RNA transcript.

[7] = biological target: T2, mouse gonadotropin-releasing hormone …; assay: displacement of 125I-GnRH-A by GnRH, membranes of WZ25 RNA-injected oocytes
Experimental: as §2, §3

Molecule: gonadotropin-releasing hormone (GnRH) (from UniProt P01148) (peptide)
- EC50 of inositol phosphate production in COS-1 cells transfected with pSV2A-human GnRH-R [1]: 3 nM
- inositol phosphate production in COS-1 cells transfected with pSV2A-human GnRH-R [1]: 8 fold

Molecule: antagonist 13: [Ac-D-NaI1,D-α-4-ClPhe2, D-Pal3,D-Arg6, D-Ala10]GnRH (from UniProt P01148) (peptide)
- IC50 of inhibition of GnRH-stimulated (10-8 M) inositol phosphate production in COS-1 cells transfected with pSV2A-human GnRH-R [1]: 6.7e-09 M
- Kd [2]: 0.21 nM

Molecule: QHWSYGLRPG [gonadotropin-releasing hormone (GnRH)]
- binding result [7]: binds

Further lines, results first:

- IC50 of inhibition of GnRH-stimulated (10-8 M) inositol phosphate production in COS-1 cells transfected with pSV2A-human GnRH-R [1]: 1.05e-07 M
- Kd [3]: 8.4 nM
- Kd [4]: 3.6 nM
Molecule: [d(pGlu)][dF][dW]SY[dW]LRPG (ends and bridges not checked) [antagonist 5: [D-pGlu1,D-Phe2,D-Trp3,6]GnRH]

- Kd [5]: 2.9 nM
- Kd [3]: 0.97 nM
- Kd [6]: 4.5 nM
Molecule: QHWSY[dA][NMeL]RP-NHEt (ends and bridges not checked; also: 125I label on the tracer form) [[D-Ala6, NαMe-Leu7, Pro9-NHEt]GnRH (GnRH-A)]
